Target: Flag-tagged chicken p53 (chicken) (UniProt P10360)
UniProt P10360, sequence (P10360 whole entry): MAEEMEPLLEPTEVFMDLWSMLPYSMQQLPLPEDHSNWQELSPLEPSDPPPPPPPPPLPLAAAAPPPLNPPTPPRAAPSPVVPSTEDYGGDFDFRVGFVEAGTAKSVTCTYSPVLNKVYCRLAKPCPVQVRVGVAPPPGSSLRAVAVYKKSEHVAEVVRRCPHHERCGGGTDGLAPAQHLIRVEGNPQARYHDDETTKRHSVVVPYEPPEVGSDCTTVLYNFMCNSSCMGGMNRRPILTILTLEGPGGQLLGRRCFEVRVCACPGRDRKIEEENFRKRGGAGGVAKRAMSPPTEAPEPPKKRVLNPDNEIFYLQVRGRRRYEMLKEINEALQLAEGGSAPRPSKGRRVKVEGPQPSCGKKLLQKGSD

## GFP-tagged Meq (natural protein)
  p53-mediated apoptosis (TUNEL assay, percent of apoptotic cells) in CEFs co-transfected with Flag-p53 and Flag-Meq at 1:10 molar ratio; approximately 46% with Flag-p53 alone: 12 % of cells

From article PMC2999606
